Our source for the Kd values is patent WO2012007688A1 (dated 2012).

For this experiment, the target named is T1, fragment C of tetanus toxoid (Sigma, T3694) (Clostridium tetani, UniProt P04958 865-1315).
T1 sequence: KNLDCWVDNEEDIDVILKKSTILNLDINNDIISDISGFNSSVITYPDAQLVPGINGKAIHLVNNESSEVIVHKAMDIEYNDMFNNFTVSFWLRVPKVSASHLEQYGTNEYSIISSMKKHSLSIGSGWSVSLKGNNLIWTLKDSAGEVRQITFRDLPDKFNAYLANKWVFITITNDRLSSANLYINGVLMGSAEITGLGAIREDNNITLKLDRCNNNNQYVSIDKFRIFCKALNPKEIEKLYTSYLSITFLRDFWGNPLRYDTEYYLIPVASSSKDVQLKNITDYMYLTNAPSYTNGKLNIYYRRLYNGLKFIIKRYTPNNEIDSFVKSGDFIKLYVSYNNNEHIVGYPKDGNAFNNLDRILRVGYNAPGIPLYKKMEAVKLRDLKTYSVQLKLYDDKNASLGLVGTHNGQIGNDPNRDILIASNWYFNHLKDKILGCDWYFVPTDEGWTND

B1: Antibody 5 (human monoclonal antibody against tetanus toxin) (antibody, V domains shown)
VH: QLVQSGAEVKKPGSSVKVSCKASGGTLSGFAINWVRQAPGQGLEWMGGIIPDTGSPTYVQRFQGRVTMTADKSTSTAYMELNSLRSDDTAVYYCARSVMITFGGVLTPPNFDFWGQGTLVTVSS
VL: DIQMTQSPSSLSASVGDRVTISCRASQAISIYLNWYQQRPGKAPRLLIYAASNLQSGVPSRFSASGSGTDFTLTISSLQPEDFATYYCQQSKENPPTFGQGTKLEIKR
On to B1, for which the Kd (usually the concentration at which binding is half-saturated) was 0.16 nM.

B2: Antibody 4 (human monoclonal antibody against tetanus toxin) (antibody, V domains shown)
VH: EVQLVESGGGLVQPGGSLRLSCAASGFSFSRHWMSWVRQAPGKGLEWVANIHYDLSEKYFVDSVRGRFTISRDNAKNSLYLEMNSLRADDTAVYYCARGGRSTVWPRGWFDLWGQGTLVTVSS
VL: EIVLTQSPGTLSLSPGERATLSCRASQSVSSSYLAWYQQKPGQAPRLLIYGASGRATGIPDRFSGSGSGTHFTLTISRLEPEDFAVYFCQQFADSRTFGQGTKLEIKR
The molecule B2 showed a Kd of 34 nM.
